# Residue numbers refer to the chain shown, from its start.
# B1: P1: Constitutive promoter of Bacteroides 16S rDNA (BT_r09 P1) (nucleic acid)
# DNA: TTTTGCACCCGCTTTCCAAGAGAAGAAAGCCTTGTTAAATTGACTTAGTGTAAAAGCGCAGTACTGCTTGACCATAAGAACAAAAAAACTTCCGATAAAGTTTGGAAGATAAAGCTAAAAGTTCTTATCTTTGCAGTC
# modifications: Constitutive promoter (last nucleotide is +1 TSS)
# B2: P2: Constitutive promoter of Bacteroides 16S rDNA (nucleic acid)
# DNA: AAGAAAAGGCGTTTTGTTTTTCTTCTTTACCTTCTTTCCCTTTCGCTAAGAGAGTCTGAGAAACGATAGAAAAAGAAAAGCGAAAAAACTTCCGAAAACATTTGGTAGTTAAAATAAAACCTCTTACCTTTGCACCC
# modifications: P2 Constitutive promoter (last nucleotide is +1 TSS)
# notes: Constitutive promoter of Bacteroides 16S rDNA
# B3: P1TD: Synthetic aTC-inducible promoter (distal tetO2) + RBS GH023 (nucleic acid)
# DNA: TTTGCACCCGCTTTCCAAGAGAAGAAAGCCTTGTTAAATTGACTTAGTGTAAAAGCGCAGTACTGCTTGACCATAAGAACAAAAAAATCTCTATCACTGATAGGGATAAAGTTTGGAAGATAAAGCTAAAAGTTCTTATCTTTGCAGTCCGAAATAAAGACATATAAAAGAAAAGACACCATG
# modifications: P1TD Synthetic aTC-inducible promoter (distal tetO2)+RBS GH023
# B4: P1TP: Synthetic aTC-inducible promoter (proximal tetO2) + RBS GH023 (nucleic acid)
# DNA: TTTTGCACCCGCTTTCCAAGAGAAGAAAGCCTTGTTAAATTGACTTAGTGTAAAAGCGCAGTACTGCTTGACCATAAGAACAAAAAAACTTCCGATAAAGTTTGGAAGATAAAGCTAAAAGTTCTTATCTTTGCAGTCTCCCTATCAGTGATAGAGACGAAATAAAGACATATAAAAGAAAAGACACCATG
# modifications: P1TPSynthetic aTC-inducible promoter (proximal tetO2)+RBS GH023
# B5: ss-Bte1: Periplasmic localized T6SS effector from B. fragilis NCTC 9343 (protein)
# chain: MKKILSLLVMAIVAIQFSFAGGKEIEIKKLPEFEAMVNAGNTTYTGLVEGIGYVYWTTETLYFIRTNPEQLWAIPKYQQIPFPYFQRKDAIIETKTLHTLHVLSKDELLKLDYDAYYAFYGIVEEMLKFIHRADAIKSYCEIPLPIIKSKGALKGNDARNGILSLGSQINDQIGAPLDAANMLMDNKHIGKIGDGLSLISIIDEVGNGEYWSAAGDILLFAAGKTKLSPYMTVISLGTWMYETDLMQWRLACINYSDYKKTLIKYRELQKKFESGDKSVEEKMNECHKILNSHYIEMQKNLGNLGVKF
# modifications: Periplasmic-localized T6SS effector from B. fragilis NCTC 9343
# B6: ss-Bfe1: Periplasmic localized T6SS effector from B. fragilis 638R (protein)
# chain: MKKILSLLVMAIVAIQFSFAGAYRNEYKTQSEFNVILERGDDYEGFVVGLGYTWMSSKVILPVNQNGWSPISRNVSVDESFHTIVSERKYDTSQYAYEKSLMQDPTKVSEKVRDLIVKNKGNNITEINLGQEKQYLPTDNSQISIVITDTGSRYEIVISATDNSNGKTYEAKYESLTDLVSAVRDSGSLPAVNKEGPNLEGLAGLGFGIAETAGNWAEKIMDNRGAYLPKQMRFSPKTLPPIIRLPLGNYQVPAKGMSRVRGVGKALGWAGMVLTGYQVVRDVQNGRFAVAGTRIAVAGLAYGVTFIPYVGWVLAIGIGVADYTWGDEFYDWIDNRASELEMWWDGVRLAL
# modifications: Periplasmic-localized T6SS effector from B. fragilis 638R
# B7: P1TDP^B40: Synthetic aTC-inducible promoter (distal and proximal tetO2) + RBS B40 (nucleic acid)
# DNA: TTTGCACCCGCTTTCCAAGAGAAGAAAGCCTTGTTAAATTGACTTAGTGTAAAAGCGCAGTACTGCTTGACCATAAGAACAAAAAAATCTCTATCACTGATAGGGATAAAGTTTGGAAGATAAAGCTAAAAGTTCTTATCTTTGCAGTCTCCCTATCAGTGATAGAGACGCATTTTAAAATAAAATAAATCATGTAGTTAATTAAACGAATCCATG
# modifications: P1TDP-B40 Synthetic aTC-inducible promoter (distal and promixal tetO2)+RBS B40
# B8: P1TDP^A21: Synthetic aTC-inducible promoter (distal and proximal tetO2) + RBS A21 (nucleic acid)
# DNA: B7 DNA with C191T, G194T, G197T, T198G, T199A, A200T
# modifications: P1TDP-A21 Synthetic aTC-inducible promoter (distal and promixal tetO2)+RBS A21
# B9: P1TDP^C56: Synthetic aTC-inducible promoter (distal and proximal tetO2) + RBS C56 (nucleic acid)
# DNA: B7 DNA with C191T, G194T, T195C, A196G, G197T, A201G
# modifications: P1TDP-C56 Synthetic aTC-inducible promoter (distal and promixal tetO2)+RBS C56
# Key:
# [1] = tested on: sialidases; conditions: cited from earlier work
# [2] = tested on: B. thetaiotaomicron; conditions: cited from earlier work
# [3] = tested on: B. thetaiotaomicron; assay: Polymyxin B susceptibility (MIC, E-test strips); format: cell-based, Bacteroides thetaiotaomicron; conditions: for PMB resistance of B. thetaiotaomicron lpxF mutant expressing lpxF from the promoter: no TetR
# Description: Minimum inhibitory concentrations (MICs) were determined on solid medium using E-test strips (Biomerieux) as previously described (Cullen, T. W. et al., 2015, Science, 347:170-175), except that cultures were initially grown for 18 hours in liquid medium. Cultures were adjusted to OD600˜1.0 and 100 μL of cell suspension was then spread onto BHI-blood agar plates. Surface liquid was allowed to dry in a fume hood for 10 minutes, followed by application of the E-test strip to the agar surface.
# [4] = tested on: NanoLuc luciferase reporter in B. thetaiotaomicron; assay: NanoLuc luciferase assay from in vitro samples (promoter activity); format: cell-based, Bacteroides thetaiotaomicron
# Description: The NanoLuc luciferase assay was performed as described (Mimee, M. et al., 2015, Cell Syst., 1:62-71), with the following modifications. All strains were first grown for 18 hours in TYG medium or Gut Microbiota Medium and diluted 250-fold into fresh medium in appropriate conditions (with or without aTC). Cultures were grown to mid exponential phase (OD600 0.3-0.4) and colony forming units (CFU) were measured by dilution plating. 500 μL of the culture was centrifuged at 21,130×g for 3 minutes, resuspended in 50 μL 1× BugBuster (Novagen) in 1×PBS and lysed by one cycle of freeze-thaw and nutation at 26° C. for 10 minutes. Lysates were cleared of cellular debris by centrifugation at 21,130×g for 10 minutes at 4° C. 10 μL of the supernatant was mixed with an equal volume of NanoLuc Reaction Buffer using the Nano-Glo Luciferase Assay System (Promega) and incubated for 5 minutes at 26° C. to induce luminescence production. Relative Light Units (RLU) were measured using a fluorescence plate reader (BioTek Synergy H1) with an integration time of 1 second at a gain setting of 100. Luminescence values were normalized to colony forming units (CFUs) because experimental conditions (e.g., growth medium, antibiotics, aTC, heterologous gene expression) affect the correlation between CFUs and OD600 in Bacteroides.
# [5] = tested on: B. thetaiotaomicron; assay: aTC-induced expression of periplasm-targeted T6SS effectors (viability, culture density); format: cell-based, Bacteroides thetaiotaomicron; conditions: under P1TDP in Bt::tetR, aTC added
# From the text: To direct Bte1 and Bfe1 to the periplasm upon expression in B. thetaiotaomicron, the genes encoding each effector were first PCR amplified from genomic DNA purified from B. fragilis NCTC 9343 and B. fragilis 638R, respectively, using the CTAB method. A periplasmic localization signal was searched for that would be cleaved after translocation to prevent steric hindrance of the effector. To identify proteins that encode N-terminal B. thetaiotaomicron periplasmic localization signals that are post-translationally cleaved after protein translocation, the proteome of the Bacteroides thetaiotaomicron VPI-5482 chromosome was searched for signal peptides (PTM/Processing; Molecule Processing, Signal Peptide) using UniProt (UniProt Consortium, 2015, Nucleic Acids Research, 43:D204-D212). To exclude membrane proteins that potentially encode an uncleaved signal peptide, the search was refined by an additional query for the term “periplasmic” under Protein name. To identify a short periplasmic signal, the maximum length for the signal peptide was set at 20 amino acids. […] Therefore, the B. fragilis effectors were fused at the 5′ end (minus the ATG start codon) to the first 63 base pairs (encoding the first 21 amino acids) of the BT4676 open reading frame (see Table 2 for sequence) in order to localize them to the periplasm after expression in B. thetaiotaomicron.
molecule,measurement,setting,value
"CC(=O)N[C@H]1[C@H]([C@H](O)[C@H](O)CO)O[C@@](Oc2ccc([N+](=O)[O-])cc2)(C(=O)O)C[C@@H]1O [pNP-SA, 2-O-(p-Nitrophenyl)-t-D-N-acetylneuraminic acid]",Km,[1],110 µM
polymixin B [PMB],reduction of PMB resistance by deletion of lpxF,[2],four orders of magnitude
same,PMB MIC,"[3]; Bt::tetR lpxF carrying P1TDP-lpxF fusion, TetR repressed, no aTC",< 0.064 µg/mL
same,reduction of PMB MIC by TetR repression of P1TDP-lpxF,"[3]; Bt::tetR lpxF, no aTC","over 10,000 fold"
same,PMB MIC,[3]; wildtype B. thetaiotaomicron,> 1024 µg/mL
B1,effect of TetR on promoter activity,"[4]; Bt::tetR, no aTC",no effect
same,PMB resistance of B. thetaiotaomicron lpxF mutant expressing lpxF from the promoter,[3],increases PMB resistance to wildtype levels
B2,PMB resistance of B. thetaiotaomicron lpxF mutant expressing lpxF from the promoter,[3],increases PMB resistance to wildtype levels
B3,PMB resistance of B. thetaiotaomicron lpxF mutant expressing lpxF from the promoter,[3],increases PMB resistance to wildtype levels
B4,PMB resistance of B. thetaiotaomicron lpxF mutant expressing lpxF from the promoter,[3],increases PMB resistance to wildtype levels
B5,toxicity on expression in B. thetaiotaomicron,[5],highly toxic
B6,toxicity on expression in B. thetaiotaomicron,[5],highly toxic
B7,increase of dynamic response to aTC over P1TDP^GH023,[4]; Bt::tetR,3.3 fold
same,reporter expression relative to background in uninduced state,"[4]; Bt::tetR (TetR present), no aTC",1.4 fold
same,induction of reporter activity (luminescence) in response to aTC,"[4]; Bt::tetR, aTC 100 ng/mL","9,100 fold"
B8,luminescence higher than the strongest native promoter tested,"[4]; ON state, 18 native B. thetaiotaomicron promoters",14 fold
B9,luminescence lower than the weakest native promoter tested,"[4]; OFF state, 18 native B. thetaiotaomicron promoters",6.7 fold

# — patent US11549115B2, “Compositions and methods for regulated gene expression” (YALE UNIVERSITY, priority 2017, dated 2023)
